Here are results for one protein from article PMC9508239 (Nature Communications, 2022).

This data set concerns the molecule itself. Briefly: cryo-EM structure; purified MmIR dimer fraction (20 mM Hepes-Na pH 7.4, 150 mM NaCl, 0.03% DDM) mixed with synthesized S597-component-2 (S597-N20) at 1:4 (m:m), incubated half an hour, 4 °C, concentrated to 6 mg/ml.

B1: full-length mouse insulin receptor, short isoform, with kinase-dead mutation D1122N and mutation Y962F (receptor, UniProt P15208 28-1372, looked up)
chain: HLYPGEVCPGMDIRNNLTRLHELENCSVIEGHLQILLMFKTRPEDFRDLSFPKLIMITDYLLLFRVYGLESLKDLFPNLTVIRGSRLFFNYALVIFEMVHLKELGLYNLMNITRGSVRIEKNNELCYLATIDWSRILDSVEDNYIVLNKDDNEECGDVCPGTAKGKTNCPATVINGQFVERCWTHSHCQKVCPTICKSHGCTAEGLCCHKECLGNCSEPDDPTKCVACRNFYLDGQCVETCPPPYYHFQDWRCVNFSFCQDLHFKCRNSRKPGCHQYVIHNNKCIPECPSGYTMNSSNLMCTPCLGPCPKVCQILEGEKTIDSVTSAQELRGCTVINGSLIINIRGGNNLAAELEANLGLIEEISGFLKIRRSYALVSLSFFRKLHLIRGETLEIGNYSFYALDNQNLRQLWDWSKHNLTITQGKLFFHYNPKLCLSEIHKMEEVSGTKGRQERNDIALKTNGDQASCENELLKFSFIRTSFDKILLRWEPYWPPDFRDLLGFMLFYKEAPYQNVTEFDGQDACGSNSWTVVDIDPPQRSNDPKSQTPSHPGWLMRGLKPWTQYAIFVKTLVTFSDERRTYGAKSDIIYVQTDATNPSVPLDPISVSNSSSQIILKWKPPSDPNGNITHYLVYWERQAEDSELFELDYCLKGLKLPSRTWSPPFESDDSQKHNQSEYDDSASECCSCPKTDSQILKELEESSFRKTFEDYLHNVVFVPRPSRKRRSLEEVGNVTATTLTLPDFPNVSSTIVPTSQEEHRPFEKVVNKESLVISGLRHFTGYRIELQACNQDSPDERCSVAAYVSARTMPEAKADDIVGPVTHEIFENNVVHLMWQEPKEPNGLIVLYEVSYRRYGDEELHLCVSRKHFALERGCRLRGLSPGNYSVRVRATSLAGNGSWTEPTYFYVTDYLDVPSNIAKIIIGPLIFVFLFSVVIGSIYLFLRKRQPDGPMGPLYASSNPEFLSASDVFPSSVYVPDEWEVPREKITLLRELGQGSFGMVYEGNAKDIIKGEAETRVAVKTVNESASLRERIEFLNEASVMKGFTCHHVVRLLGVVSKGQPTLVVMELMAHGDLKSHLRSLRPDAENNPGRPPPTLQEMIQMTAEIADGMAYLNAKKFVHRNLAARNCMVAHDFTVKIGDFGMTRDIYETDYYRKGGKGLLPVRWMSPESLKDGVFTASSDMWSFGVVLWEITSLAEQPYQGLSNEQVLKFVMDGGYLDPPDNCPERLTDLMRMCWQFNPKMRPTFLEIVNLLKDDLHPSFPEVSFFYSEENKAPESEELEMEFEDMENVPLDRSSHCQREEAGGREGGSSLSIKRTYDEHIPYTHMNGGKKNGRVLTLPRSNPS
notes: insulin receptor, mouse, short isoform (A isoform), full length; Disulfide-linked dimer; The proreceptor is written as one chain; An HRV-3C site lay between the receptor and Tsi3; also called MmIR; IR; source: FreeStyle 293-F cells (BacMam), purified (DDM extraction, Tse3 resin, HRV-3C elution, Superose 6; dimer fraction); not shown: Tsi3, C-terminal, cleaved
Regarding B1, the binding result is “binds”.
